Columns and labels:
Details in all cases: remark: other sources report otherwise
[1] = target: T1, recombinant homotrimeric HA, A/swine/Ontario/01911-2/99 H4N6 (Influenza A virus A/swine/Ontario/01911-2/99 (H4N6)); experiment: trimeric HA microarray; transfection supernatant set 2
[2] = target: recombinant soluble homotrimeric HA of A/Vietnam/1203/04 (H5N1) (Influenza A virus A/Vietnam/1203/2004 (H5N1)); experiment: HA microarray, BCC supernatant
[3] = target: recombinant soluble homotrimeric HA of A/California/4/09 (H1N1) (Influenza A virus A/California/04/2009 (H1N1)); experiment: HA microarray, BCC supernatant
[4] = target: recombinant soluble homotrimeric HA of A/Solomon Islands/3/06 (H1N1) (Influenza A virus A/Solomon Islands/3/2006 (H1N1)); experiment: HA microarray, BCC supernatant
[5] = target: recombinant soluble homotrimeric HA of A/Indonesia/5/05 (H5N1) (Influenza A virus A/Indonesia/5/2005 (H5N1)); experiment: HA microarray, BCC supernatant
[6] = target: recombinant soluble homotrimeric HA of A/Wisconsin/67/05 (H3N2) (Influenza A virus A/Wisconsin/67/2005 (H3N2)); experiment: HA microarray, BCC supernatant
[7] = target: recombinant soluble homotrimeric HA of A/Japan/305/57 (H2N2) (Influenza A virus A/Japan/305/1957 (H2N2)); experiment: HA microarray, BCC supernatant
[8] = target: T2, recombinant homotrimeric HA, A/Solomon Islands/3/06 H1N1 (Influenza A virus A/Solomon Islands/3/06 (H1N1)); experiment: trimeric HA microarray; transfection supernatant set 2
[9] = target: recombinant soluble homotrimeric HA of A/chicken/Vietnam/NCVD-016/08 (H5N1) (Influenza A virus A/chicken/Vietnam/NCVD-016/2008 (H5N1)); experiment: HA microarray, BCC supernatant
[10] = target: recombinant homotrimeric HA, A/Egypt/3300-NAMRU3/08 H5N1 (Influenza A virus A/Egypt/3300-NAMRU3/08 (H5N1)); experiment: trimeric HA microarray; transfection supernatant set 5
[11] = target: T1, recombinant homotrimeric HA, …; experiment: as above
[12] = target: recombinant soluble homotrimeric HA of A/Egypt/3300-NAMRU3/08 (H5N1) (Influenza A virus A/Egypt/3300-NAMRU3/2008 (H5N1)); experiment: HA microarray, BCC supernatant
[13] = target: recombinant soluble homotrimeric HA, A/Hong Kong/156/97 (H5N1) (influenza A virus A/Hong Kong/156/97 (H5N1)); experiment: microarray, trimeric HA, transfection supernatant
[14] = target: recombinant soluble homotrimeric HA, A/northern shoveler/California/HKWF115/2007 (H6N1) (influenza A virus A/northern shoveler/California/HKWF115/2007 (H6N1)); experiment: microarray, trimeric HA, transfection supernatant
[15] = target: recombinant soluble homotrimeric HA, A/Anhui/1/05 (H5N1) (influenza A virus A/Anhui/1/2005 (H5N1)); experiment: microarray, trimeric HA, transfection supernatant
[16] = target: recombinant soluble homotrimeric HA, A/chicken/Vietnam/NCVD-016/08 (H5N1) (influenza A virus A/chicken/Vietnam/NCVD-016/2008 (H5N1)); experiment: microarray, trimeric HA, transfection supernatant
[17] = target: recombinant homotrimeric HA, A/Japan/305/57 H2N2 (Influenza A virus A/Japan/305/57 (H2N2)); experiment: trimeric HA microarray; transfection supernatant set 5
[18] = target: recombinant soluble homotrimeric HA of A/duck/Yangzhou/02/2005 (H8N4) (Influenza A virus A/duck/Yangzhou/02/2005 (H8N4)); experiment: HA microarray, BCC supernatant
[19] = target: recombinant soluble homotrimeric HA, A/duck/Yangzhou/02/2005 (H8N4) (influenza A virus A/duck/Yangzhou/02/2005 (H8N4)); experiment: microarray, trimeric HA, transfection supernatant
[20] = target: recombinant homotrimeric HA, A/California/4/09 H1N1 (Influenza A virus A/California/4/09 (H1N1)); experiment: trimeric HA microarray; transfection supernatant set 5
[21] = target: recombinant soluble homotrimeric HA of A/Netherlands/219/03 (H7N7) (Influenza A virus A/Netherlands/219/03 (H7N7)); experiment: HA microarray, BCC supernatant
[22] = target: recombinant soluble homotrimeric HA, A/Netherlands/219/03 (H7N7) (influenza A virus A/Netherlands/219/03 (H7N7)); experiment: microarray, trimeric HA, transfection supernatant
[23] = target: recombinant homotrimeric HA, A/Wisconsin/67/05 H3N2 (Influenza A virus A/Wisconsin/67/05 (H3N2)); experiment: trimeric HA microarray; transfection supernatant set 5
[24] = target: recombinant soluble homotrimeric HA of A/Anhui/1/05 (H5N1) (Influenza A virus A/Anhui/1/2005 (H5N1)); experiment: HA microarray, BCC supernatant
[25] = target: T2, recombinant homotrimeric HA, A/Solomon …; experiment: trimeric HA microarray; transfection supernatant set 5
[26] = target: recombinant soluble homotrimeric HA of A/swine/Ontario/01911-2/99 (H4N6) (Influenza A virus A/Swine/Ontario/01911-2/99 (H4N6)); experiment: HA microarray, BCC supernatant

Row | Binder | Trimeric HA Binding RLU [2] | Trimeric HA Binding RLU [3] | Trimeric HA Binding RLU [4] | Trimeric HA Binding RLU [6] | Trimeric HA Binding RLU [7] | Trimeric HA Binding RLU [9] | Trimeric HA Binding RLU [13] | Trimeric HA Binding RLU [14] | Trimeric HA Binding RLU [15] | Trimeric HA Binding RLU [16] | Trimeric HA Binding RLU [18] | Trimeric HA Binding RLU [19] | further results
1 | TCN-522 (3212_I12) (antibody, V domains shown) VH: QVQLQQWGAGLLKPSETLSLTCTVSGGSLTDYSWNWIRQPPGKGLEWIGDTLHNGYTNYNPSLRGRVSISIDTSKNQVSLRLTSVTAADTALYYCARGSGGYGGFDYFGKLRTWDFWGQGTLVTVSS VL: DIQLTQSPSSLSASVGDRVTITCRASQGIRNDLGWYQQKPGNAPKRLIFGASSLQSGVPSRFSGSGSGTEFTLTISSLQPEDFATYYCLQHNSYPYTFGQGTKLEIK | 145 RLU | 5020 RLU | 38900 RLU | 302 RLU | 989 RLU | – | – | – | – | – | – | – | Trimeric HA Binding: RLU [1]: 1050 RLU; Trimeric HA Binding RLU [5]: 67 RLU
2 | TCN-526 (5084_C17) (antibody, V domains shown) VH: EVLMVESGGGLVQPGGSVRLSCVASGFSFSSHWMTWVRQAPGKGLEWVANIEDDGGDKYYVDSVKGRFIISRDNAKNSVYLQMNSLRAEDTAVYFCARGSGSSDRSDYDPHYYYYLDVWGKGATVTVSS VL: DIQLTQSPSSLSASVGDRVTITCRASQSISRYLNWYQQKPGKAPKLLLFAASTLLDGVPSRFSGSGSGTDFTLTISSLQPEDFATYYCQRNHSPSWTFGQGTRVEIK | – | – | 341 RLU | 49300 RLU | 246 RLU | 179 RLU | – | – | – | – | – | – | Trimeric HA Binding: RLU [8]: 1470 RLU
3 | TCN-539 (5056_A08) (antibody, V domains shown) VH: QVQLVESGGGVVQPGRSLRLSCAASEITFITYAMHWVRQAPGKGLEWVALISDDGSNKFYADSVKGRFTISRDNSKNTLYLQMNSLRAEDTAAYYCAREGVYFDSGTYRGYFDYWGQETLVTVSS VL: EIVLTQSPATLSLSPGERATLSCRASQSVSSYLAWYQQKPGQAPRLLIYDASNRATGIPARFSGSGSGTDFTLTISSLEPEDFAVYYCQQRSHWPPITFGQGTRLEIK | 545 RLU | – | 239 RLU | 715 RLU | 468 RLU | 100 RLU | 1450 RLU | 2860 RLU | 3240 RLU | 3500 RLU | – | – | Trimeric HA Binding: RLU [10]: 24300 RLU; Trimeric HA Binding: RLU [11]: 6510 RLU; Trimeric HA Binding RLU [12]: 11400 RLU
4 | TCN-542 (5079_A16) (antibody, V domains shown) VH: QVQLQESGPGLVKPSQTLSLTCTVSGGSISSGNYYWNWVRQHPGKGLEWIGYIYYRGSTFYNPSLKSRVTISIDTSKNQFSLRLSSVTAADTAVYYCAKDTRSSLDNYQYGMDVWGQGTTVTVSS VL: QTVVTQEPSLTVSPGGTVTLTCASSTGAVTSSYFPNWFQQKPGQAPRPLIYSTTIRHSWTPARFSGSLLGGKAALTLSGVQPEDEADYYCLLYSGGDPVAFGGGTKLTVL | – | – | – | – | 142 RLU | – | 786 RLU | 2370 RLU | 7410 RLU | 5460 RLU | 332 RLU | 11600 RLU | Trimeric HA Binding: RLU [17]: 5180 RLU
5 | TCN-545 (5082_I15) (antibody, V domains shown) VH: QVQLQQWGAGLLKPSETLSLSCAVFGGSFSDYYWTWIRQPPGKGLEWIGEIKHSGRTNYNPSLESRVTISVDTSKNQFSLKLSSVTAADTAIYYCARGTDPDTEGYCRSGSCSAFDFWGQGTLVTVSS VL: EIVLTQSPGTLSLSPGERATLSCRASHFVNYRSLAWYQQTPGQVPRLLIYGASTRATGIPDRFSGSGSGTDFTLTISRLEPEDFAVYFCQQYGGSPRYTFGQGTRLEIK | 235 RLU | 365 RLU | – | 575 RLU | 157 RLU | 392 RLU | 1560 RLU | – | 4880 RLU | 3230 RLU | – | 13200 RLU | Trimeric HA Binding: RLU [20]: 818 RLU
6 | TCN-547 (5092_F11) (antibody, V domains shown) VH: QVQLQESGPGLVKPSQTLSLTCTVSGDSISSVDHYWSWIRQHPVKGLEWIGFMYYSASTYYNPSLKSRVTISTDTSKNQFSLRLSSVTAADTAVYYCARGTCAGDCSLHYYYYGLDVWGQGRTVTVSS VL: DIQMTQSPSSLSASVGDRVTITCRASQSISSYLNWYQHKPGKAPKVLMYAVSILQSGVPSRFSGSGSGADFTLTISSLQPEDFATYYCQQSYSSPLTFGGGTKVEIK | – | 170 RLU | 155 RLU | 16900 RLU | 40 RLU | 198 RLU | – | 2620 RLU | – | 1320 RLU | 278 RLU | 3340 RLU | Trimeric HA Binding: RLU [20]: 1470 RLU; Trimeric HA Binding RLU [21]: 401 RLU; Trimeric HA Binding RLU [22]: 2090 RLU
7 | TCN-551 (5243_D01) (antibody, V domains shown) VH: EVQLVQSGSEVKKPGESLKISCKGSGYSFSNYWIGWVRHMPGKGLEWMGIIYPGDSDTRYSPSFQGQVTMSADKSSSTVYLQWSSLKASDTAIYYCARRGGHSFGYGSGGDTHSEFDSWGQGTLVTVSS VL: QSVLTQSPSVSAAPGQKVTISCSGSDSNIGDYFVCWYQHLPGKPPQLLIYENNKRPSGIPDRFSGSKSGTSATLGITGIQTGDEADYYCATWDGSLSAWVFGGGTKLTVL | 4150 RLU | 53400 RLU | 53800 RLU | 6840 RLU | 22600 RLU | – | 792 RLU | – | – | 792 RLU | 9820 RLU | – | Trimeric HA Binding: RLU [23]: 936 RLU; Trimeric HA Binding: RLU [10]: 17400 RLU; Trimeric HA Binding RLU [12]: 47200 RLU; Trimeric HA Binding RLU [5]: 53500 RLU; Trimeric HA Binding RLU [24]: 4190 RLU
8 | TCN-554 (5277_M05) (antibody, V domains shown) VH: QVQLVQSGADLKKPGASVKVSCKASGYTFTDYYIHWVRQAPGQGLEWMGWINPESGDTKYAQKFQGRVTMTRDTSITTAYMELGRLRSDDTAVYYCARDVSTTWSWFAPWGQGTLVTVSS VL: DIVMTQSPDSLAVSLGERATINCRSSQSIFHNSNNENYLAWYQQKPGQPPKLLIYWASTRESGVPDRFSGSGSGTDFTLTISSLQAEDVAVYFCQQYYNAPLTFGGGTKVEIK | – | – | – | 46500 RLU | 328 RLU | 250 RLU | – | – | – | 2710 RLU | – | 5810 RLU | Trimeric HA Binding: RLU [25]: 992 RLU; Trimeric HA Binding: RLU [11]: 5400 RLU; Trimeric HA Binding RLU [26]: 78 RLU; Trimeric HA Binding RLU [21]: 610 RLU; Trimeric HA Binding RLU [22]: 4520 RLU

Reference: US20150104459A1
